Test results from patent publication US20140079722A1, “EXTRACELLULAR TARGETED DRUG CONJUGATES” (CENTROSE, LLC, priority 2011, published 2014).

Columns and labels:
H520 = assay: In vitro cancer cell cytotoxicity (CellTiter-Glo cell viability); type: cell-based, human
Text: EDCs were constructed using linker-ready agents PEG24-CEN09-106, PEG24-CEN09-107, PEG24-CEN10-110 and PEG24-CEN-319. As described in Example 1, linker-ready agent PEG24-CEN-319 contain digitoxigenin while the others contain scillarenin. Linker-ready agents PEG24-CEN09-106, PEG24-CEN09-107, PEG24-CEN10-110 all use different linkers. Specifically, PEG24-CEN09-106 and PEG24-CEN09-107 have different sugars in the linker, while PEG24-CEN10-110 contains a longer linker that includes a primary amine.
All of the cell lines below, except H520, express the Na,K-ATPase with the dysadherin subunit and so present the target of the antibody and drug in close proximity.

[1] = test system: primary human umbilical artery endothelial cells (HUAEC); assay: In vitro normal cell cytotoxicity; type: cell-based; conditions: HUAEC, 72 hrs; conjugates as antibody concentration; read-out: EC50
Description: (§1) In vitro normal cell cytotoxicity. The in vitro cytotoxic activity of M53-PEG24-CEN09-106, PEG24-CEN09-106, M53-PEG24-CEN-319, PEG24-CEN-319, proscillaridin and digitoxin against dysadherin positive primary normal human cells and a dysadherin positive human non-small cell lung carcinoma (NSCLC) cell line were tested and compared. The cells used were primary human renal epithelial cells (HREpC), primary human umbilical vein endothelial cells (HUVEC), primary human umbilical artery endothelial cells (HUAEC), and the A549 NSCLC cells. The primary cells were obtained from PromoCell GmbH, Heidelberg, Germany, and the NSCLC cell line A549 was obtained from ATCC. Primary renal epithelial cells were grown in Renal Epithelial Cell Growth Medium 2 (PromoCell GmbH, Heidelberg, Germany). Primary endothelial cells were grown in Endothelial Cell Growth Medium 2 (PromoCell GmbH, Heidelberg, Germany). The NSCLC cell line was grown in RPMI-1640 (HyClone, Thermo Scientific) supplemented with 10% fetal bovine serum. HREpC, HUVEC, HUAEC, and A549 cells were plated in 384 well plates at 1250, 1875, 2500, and 1250 cells/well (respectively) and allowed to incubate for 24 hrs at 37° C., 5% CO2, and 100% humidity. Various concentrations of conjugates M53-PEG24-CEN09-106 and […] and PEG24-CEN09-106 and […] were added to the wells in a total volume of 5 uL of media and the plates were incubated for an additional 72 hrs. After 72 hrs of exposure to agent, cell viability was evaluated using the Cell Titer-Glo Luminescent Cell Viability Assay (Promega, Madison, Wis.) according to the manufacturer's instructions. Luminescence measurements were performed using a Wallac Victor^2 Model 1420-041 assay plate reader (Perkin Elmer, Gaithersburg, Md.). EC50 values for each test agent were determined using GraphPad Prism 5 software.

[2] = test system: primary human umbilical vein endothelial cells (HUVEC); assay: In vitro normal cell cytotoxicity; type: cell-based; conditions: 72 hrs, conjugates as antibody concentration, read-out: EC50
Description: as §1

[3] = Pharmacokinetics with varying drug loading (antigen binding ELISA); type: in vivo; conditions: SCID beige mice
Description: Serum was isolated from blood samples taken by retro-orbital blood collection at 1 hour, and 1, 2, 3, 6, and 15 days post-injection. Blood was collected into heparin coated tubes followed by centrifugation (5,000×g, 5 minutes) to isolate plasma.
Antigen capture plates that were prepared by coating wells of 96 well clear bottom ELISA plates with CENP018 (SEQ ID NO: 17) conjugated to BSA at 400 ng BSA-peptide conjugate per well in 100 uL of 200 mM carbonate buffer, pH 9.6 overnight at 4° C. Antigen coated ELISA plates were washed (×3) with PBS pH 7, blocked 30 min with PBS pH 7 containing 1% NFDM (PBS+NFDM), and then washed (×3) with PBS, pH 7. […] Goat anti-mouse IgG alkaline phosphatase (cat. number: A1418, Sigma-Aldrich, St. Louis, Mo.) was diluted 1:15,000 in PBS+NFDM and added (100 uL) to each well, incubated 30 min at RT, and the wells washed (×3) with PBS, pH 7. PNPP at 1 mg/mL in 1M DEA with 50 mM MgCl2, pH 9.8 was added (100 uL per well), and the absorbance at 405 nm was determined using a Wallac Victor^2 Model 1420-041 assay plate reader (Perkin Elmer, Gaithersburg, Md.) every 5 minutes for a total of 6 reads. Absorbance values from known antibody concentration standards were used to determine the concentration of antibody in the serum samples.

A549 xenografts = assay: Second A549 xenograft study (tumor fragments); type: in vivo, female HRLN nu/nu mice
Description: Briefly, to establish a non-small-cell lung cancer disease model, subcutaneous A549 xenografts were initiated in female HRLN nu/nu mice by implanting 8 mm^3 A549 tumor fragments subcutaneously into the left flank. Tumor growth was monitored, and mice bearing tumors of 60-180 mm^3 were selected for the study. Tumor-bearing mice (n=7 mice/group) with a group average tumor volume of approximately 110 mm^3 were treated i.p. with 5 mgs/kg M53-PEG24-CEN09-106 at q3d×4, 20 mg/kg scillarenin-4-amino-deoxy-L-xylopryanoside (an intermediate in the construction of M53-PEG24-CEN09-106 and known cytotoxin) at q2dx5, and 15 mg/kg paclitaxel at q1d×5. Tumor volumes were measured for each group using calibrated vernier calipers plotted against day of first dose for 100 days to produce the graph shown in FIG. 4.
Paclitaxel at its optimum dosing produced 80% growth inhibition of the tumor when compared to vehicle.

Panc-1 xenografts = assay: Panc-1 subcutaneous xenograft model (tumor fragments); type: in vivo, female HRLN nu/nu mice; conditions: drug loading of 7; 1, 5, 15 mg/kg iv Q3Dx7 or Q7Dx3
Description: In another study, the Panc-1 subcutaneous xenograft model was used to evaluate antitumor activity of M53-PEG24-CEN09-106 with a drug loading of 7 drugs per antibody. Subcutaneous Panc-1 xenografts were initiated in female HRLN nu/nu mice by implanting 1 mm^3 PANC-1 tumor fragments were implanted subcutaneously into the right flank, tumor growth was monitored and mice bearing tumors of 80-120 mm^3 were selected for the study. Tumor volume was measured for each group 2× per week using calibrated vernier calipers plotted against day of first dose to produce the graph shown in FIG. 7. Among the treatment groups, no toxic effects were observed (toxicity determined as >10% weight loss during study period).

B1: M53-PEG24-CEN09-106: Class 1 EDC: antibody M53 conjugated to linker-ready agent PEG24-CEN09-106 (scillarenin, 4-amino-xyloside, PEG24) (conjugate)
heavy: EVQLVESGGGLVQPKGTLKLSCAASGFSFNTHAMNWVRQAPGKSLEWVARTMSKSNNYATYYADSVKDRFIIRADDSQSMLYLQMNNLKTEDTAMYYCVRDDPKRGMDYWGQGTSVTVSSAKTTPPSVYPLAPGSAAQTNSMVTLGCLVKGYFPEPVTVTWNSGSLSSGVHTFPAVLQSDLYTLSSSVTVPSSTWPSETVTCNVAHPASSTKVDKKIE
light: GIVMSQSPSSLAVSVGEKVTMSCKPSQSLLYSRNQKIYLAWYQQKPGQSPKLLIYWASTRESGVPDRFTGSGSGTDFTLIISSVRAEDLAVYYCQQYYNYPLTFGAGTKLELKRADAAPTVSIFPPSSEQLTSGGASVVCFLNNFYPKDINVKWKIDGSERQNGVLNSWTDQDSKDSTYSMSSTLTLTKDEYERHNSYTCEATHKTSTSPIVKSFNR
EC50 (H520; H520 cells (no FXYD5 surface expression), 3 days incubation): > 0.05 µM
activity on H520 cells (H520; H520 cells do not express dysadherin (FXYD5)): not active
EC50 [1]: 0.029 µM
EC50 [2]: 0.03 µM
serum half-life of detectable antibody ([3]; drug loading of 2, 1 mg/kg tail vein): approximately 7 days
serum half-life of detectable antibody ([3]; drug loading of 5, 1 mg/kg tail vein): ~96 h
serum half-life of detectable antibody ([3]; drug loading of 9, 1 mg/kg tail vein): ~48 h
growth inhibition of the tumor compared to vehicle (A549 xenografts; 100 days post-initial dose, EDC (loading 3) 5 mg/kg i.p. q3dx4, scillarenin aminoxyloside 20 mg/kg q2dx5, paclitaxel 15 mg/kg q1dx5): 72%
weight loss (A549 xenografts; same dosing as efficacy arms, second A549 xenograft study): no weight loss
tumor response compared to vehicle group (Panc-1 xenografts): tumor reduction in a dose dependent manner
